Non-standard residues stand in square brackets, D forms with d. No end group written: not given here. Nle = CCCC[C@H](N)C(=O)O
These molecules were tested against T1, PACAP-R3 (human, UniProt P41587 24-438) (assay: cell-based or functional assay). Conditions: not given.
T1 sequence (looked up): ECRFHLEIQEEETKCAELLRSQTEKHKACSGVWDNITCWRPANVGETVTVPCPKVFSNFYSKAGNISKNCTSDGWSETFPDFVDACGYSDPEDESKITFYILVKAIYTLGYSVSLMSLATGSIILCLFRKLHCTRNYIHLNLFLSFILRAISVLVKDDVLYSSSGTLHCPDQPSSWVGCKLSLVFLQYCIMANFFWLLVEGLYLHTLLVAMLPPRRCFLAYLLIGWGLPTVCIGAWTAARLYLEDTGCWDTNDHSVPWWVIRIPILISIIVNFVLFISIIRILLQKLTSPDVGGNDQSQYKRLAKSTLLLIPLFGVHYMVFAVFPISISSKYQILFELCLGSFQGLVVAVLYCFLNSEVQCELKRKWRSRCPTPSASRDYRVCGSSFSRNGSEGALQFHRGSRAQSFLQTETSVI

Row | Molecule | R3 EC50 [nM] | R3 Selectivity
1 | Ac-HSDAVFTENYTKLRKQ[Nle]AAKKYLNDLKKGGT-NH2 [R3P0] | 0.4 | > 250
2 | HSDAVFTDNYTRLRKQLAVKKYLNSILN [R3P46] | 0.06 | 7
3 | HSDAVFTDNYTRLRKQMAAKKYLNSILN [R3P47] | 0.12 | 6
4 | HSDAVFTDNYTRLRKQMAVKKYLNDILN [R3P48] | 0.13 | 8
5 | HSDAVFTDNYTRLRKQMAAKKYLNSIKN [R3P49] | 0.27 | 30
6 | HSDAVFTDNYTRLRKQMAAKKYLNSILK [R3P50] | 0.13 | 6

The molecules below were run against T2, PACAP-R3 (Homo sapiens, UniProt P41587) (assay: Cyclic AMP SPA on CHO cells expressing PACAP R3). Conditions: not given.
T2 sequence (P41587 24-438): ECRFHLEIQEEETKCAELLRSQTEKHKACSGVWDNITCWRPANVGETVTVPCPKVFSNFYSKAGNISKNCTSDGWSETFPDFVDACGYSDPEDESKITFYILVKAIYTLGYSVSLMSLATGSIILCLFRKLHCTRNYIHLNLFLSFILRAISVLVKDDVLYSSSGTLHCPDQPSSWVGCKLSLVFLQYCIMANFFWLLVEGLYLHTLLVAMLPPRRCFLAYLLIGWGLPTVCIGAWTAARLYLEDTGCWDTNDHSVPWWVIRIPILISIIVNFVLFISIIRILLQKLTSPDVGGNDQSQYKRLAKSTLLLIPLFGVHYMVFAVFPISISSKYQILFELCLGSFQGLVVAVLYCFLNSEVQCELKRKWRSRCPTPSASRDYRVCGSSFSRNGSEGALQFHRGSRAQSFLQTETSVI
Type: cell-based
Set-up: expressed in transfected cells; host or cells: CHO cells (Geneticin selection)
Protocol: CHO cells expressing the PACAP R3 were plated in 96-well plates (Costar) at 8×10^4 cell/well and grown at 37 C. for 24 hours in α MEM+nucleosides+glutamine (Giobco BRL), 10% FBS, 100 μg/ml Pen/Strep, 0.3 mg/ml glutamine, 1 mM HEPES, 0.5 mg/ml Geneticin (Gibco BRL). The media was removed and the plates were washed with PBS. The cells were incubated with a peptide, in Hepes-PBS-BSA with 0.4 mg/mlSoybean Trypsin Inhibitor, 0.5 mg/ml Bacitracin, 100 uM IBMX, for 15 min at 37 C. Cyclic AMP in the cell extracts was quantitated using the cAMP SPA direct screening assay system (Amersham Pharmacia Biotech Inc, Piscataway, N.J.,). The peptides shown in Table 3 were assayed for cAMP activity.
EC50 is defined as the concentration of the polypeptide at which 50% of maximum PACAP27 activity is achieved. “NA” denotes no detectable activities. “R3 Selectivity” is derived from the ratio of EC50 at R2 versus EC50 at R3.

Row | Molecule | EC50 [nM]
7 | HSDAVFTDDYTRLRKEVAAKKYLESIKDKRY [Peptide R3P173] | 200

Same assay, conditions: cAMP SPA, CHO cells transfected with PACAP-R3; concentration at which 50% of maximum PACAP27 activity is achieved; NA = no detectable activities; read-out: R3 EC50

Row | Molecule | EC50 [nM]
8 | CC[C@H](C)[C@H](NC(=O)[C@H](CO)NC(=O)[C@H](CC(N)=O)NC(=O)[C@H](CC(C)C)NC(=O)[C@H](Cc1ccc(O)cc1)NC(=O)[C@H](CCCCN)NC(=O)[C@H](CCCCN)NC(=O)[C@H](CC(C)C)NC(=O)[C@H](C)NC(=O)[C@H](CCSC)NC(=O)[C@H](CCC(N)=O)NC(=O)[C@H](CCCCN)NC(=O)[C@H](CCCNC(=N)N)NC(=O)[C@H](CC(C)C)NC(=O)[C@H](CCCNC(=N)N)NC(=O)[C@@H](NC(=O)[C@H](Cc1ccc(O)cc1)NC(=O)[C@H](CC(N)=O)NC(=O)[C@H](CC(=O)O)NC(=O)[C@@H](NC(=O)[C@H](Cc1ccccc1)NC(=O)[C@@H](NC(=O)[C@H](C)NC(=O)[C@H](CC(=O)O)NC(=O)[C@H](CO)NC(=O)[C@@H](N)Cc1c[nH]cn1)C(C)C)[C@@H](C)O)[C@@H](C)O)C(=O)N[C@@H](CCCCN)C(=O)N[C@@H](CC(N)=O)C(=O)N[C@@H](CCCCN)C(=O)N[C@@H](CCCNC(=N)N)C(=O)O [Peptide R3P105] | 0.3
9 | HSDAVFTDNYTRLRKQMAQKKYLNSIKNKR [Peptide R3P109] | 10
10 | H-HSDAVFTDNYTRLRKQLAVKKYLNDIKKGGT-OH [Peptide R3P21] | 0.3
11 | CC[C@H](C)[C@H](NC(=O)[C@@H](NC(=O)[C@H](CC(N)=O)NC(=O)[C@H](CC(C)C)NC(=O)[C@H](Cc1ccc(O)cc1)NC(=O)[C@H](CCCCN)NC(=O)[C@H](CCCCN)NC(=O)[C@H](C)NC(=O)[C@H](C)NC(=O)[C@H](CCSC)NC(=O)[C@H](CCC(N)=O)NC(=O)[C@H](CCCCN)NC(=O)[C@H](CCCNC(=N)N)NC(=O)[C@H](CC(C)C)NC(=O)[C@H](CCCNC(=N)N)NC(=O)[C@@H](NC(=O)[C@H](Cc1ccc(O)cc1)NC(=O)[C@H](CC(N)=O)NC(=O)[C@H](CC(=O)O)NC(=O)[C@@H](NC(=O)[C@H](Cc1ccccc1)NC(=O)[C@@H](NC(=O)[C@H](C)NC(=O)[C@H](CC(=O)O)NC(=O)[C@H](CO)NC(=O)[C@@H](N)Cc1c[nH]cn1)C(C)C)[C@@H](C)O)[C@@H](C)O)[C@@H](C)O)C(=O)N[C@@H](CCCCN)C(=O)N[C@@H](CC(N)=O)C(=O)N[C@@H](CCCCN)C(=O)N[C@@H](CCCNC(=N)N)C(=O)N[C@@H](Cc1ccc(O)cc1)C(=O)O [Peptide R3P70] | 0.4
12 | CC[C@H](C)[C@H](NC(=O)[C@H](CC(=O)O)NC(=O)[C@H](CC(N)=O)NC(=O)[C@H](CC(C)C)NC(=O)[C@H](Cc1ccc(O)cc1)NC(=O)[C@H](CCCCN)NC(=O)[C@H](CCCCN)NC(=O)[C@@H](NC(=O)[C@H](C)NC(=O)[C@H](CC(C)C)NC(=O)[C@H](CCC(N)=O)NC(=O)[C@H](CCCCN)NC(=O)[C@H](CCCNC(=N)N)NC(=O)[C@H](CC(C)C)NC(=O)[C@H](CCCNC(=N)N)NC(=O)[C@@H](NC(=O)[C@H](Cc1ccc(O)cc1)NC(=O)[C@H](CC(N)=O)NC(=O)[C@H](CC(=O)O)NC(=O)[C@@H](NC(=O)[C@H](Cc1ccccc1)NC(=O)[C@@H](NC(=O)[C@H](C)NC(=O)[C@H](CC(=O)O)NC(=O)[C@H](CO)NC(=O)[C@@H](N)Cc1c[nH]cn1)C(C)C)[C@@H](C)O)[C@@H](C)O)C(C)C)C(=O)N[C@@H](CC(C)C)C(=O)N[C@@H](CCCCN)C(=O)NCC(=O)NCC(=O)N[C@H](C(=O)O)[C@@H](C)O [Peptide R3P28] | 7
13 | CC[C@H](C)[C@H](NC(=O)[C@H](CO)NC(=O)[C@H](CC(N)=O)NC(=O)[C@H](CC(C)C)NC(=O)[C@H](Cc1ccc(O)cc1)NC(=O)[C@H](CCCCN)NC(=O)[C@H](CCCCN)NC(=O)[C@H](CO)NC(=O)[C@H](C)NC(=O)[C@H](CCSC)NC(=O)[C@H](CCC(N)=O)NC(=O)[C@H](CCCCN)NC(=O)[C@H](CCCNC(=N)N)NC(=O)[C@H](CC(C)C)NC(=O)[C@H](CCCNC(=N)N)NC(=O)[C@@H](NC(=O)[C@H](Cc1ccc(O)cc1)NC(=O)[C@H](CC(N)=O)NC(=O)[C@H](CC(=O)O)NC(=O)[C@@H](NC(=O)[C@H](Cc1ccccc1)NC(=O)[C@@H](NC(=O)[C@H](C)NC(=O)[C@H](CC(=O)O)NC(=O)[C@H](CO)NC(=O)[C@@H](N)Cc1c[nH]cn1)C(C)C)[C@@H](C)O)[C@@H](C)O)C(=O)N[C@@H](CCCCN)C(=O)N[C@@H](CC(N)=O)C(=O)N[C@@H](CCCCN)C(=O)N[C@@H](CCCNC(=N)N)C(=O)O [Peptide R3P111] | 3
14 | CC[C@H](C)[C@H](NC(=O)[C@@H](NC(=O)[C@H](CC(N)=O)NC(=O)[C@H](CC(C)C)NC(=O)[C@H](Cc1ccc(O)cc1)NC(=O)[C@H](CCCCN)NC(=O)[C@H](CCCCN)NC(=O)[C@H](C)NC(=O)[C@H](C)NC(=O)[C@H](CC(C)C)NC(=O)[C@H](CCC(N)=O)NC(=O)[C@H](CCCCN)NC(=O)[C@H](CCCNC(=N)N)NC(=O)[C@H](CC(C)C)NC(=O)[C@H](CCCNC(=N)N)NC(=O)[C@@H](NC(=O)[C@H](Cc1ccc(O)cc1)NC(=O)[C@H](CC(N)=O)NC(=O)[C@H](CC(=O)O)NC(=O)[C@@H](NC(=O)[C@H](Cc1ccccc1)NC(=O)[C@@H](NC(=O)[C@H](C)NC(=O)[C@H](CC(=O)O)NC(=O)[C@H](CO)NC(=O)[C@@H](N)Cc1c[nH]cn1)C(C)C)[C@@H](C)O)[C@@H](C)O)[C@@H](C)O)C(=O)N[C@@H](CCCCN)C(=O)N[C@@H](CC(N)=O)C(=O)N[C@@H](CCCCN)C(=O)N[C@@H](CCCNC(=N)N)C(=O)N[C@@H](Cc1ccc(O)cc1)C(=O)O [Peptide R3P67] | 0.3

Same assay, conditions: ratio of EC50 at R2 versus EC50 at R3

Row | Molecule | R3 Selectivity
15 | HSDAVFTDNYTRLRKQMAQKKYLNSIKNKR [Peptide R3P109] | 100
16 | H-HSDAVFTDNYTRLRKQLAVKKYLNDIKKGGT-OH [Peptide R3P21] | 60
17 | HSDGIFTDSYSRYRKQLAAKKYLADVKK [Peptide R3P38] | 7
18 | CC[C@H](C)[C@H](NC(=O)CNC(=O)[C@H](CC(=O)O)NC(=O)[C@H](CO)NC(=O)[C@@H](N)Cc1c[nH]cn1)C(=O)N[C@@H](Cc1ccccc1)C(=O)N[C@H](C(=O)N[C@@H](CC(=O)O)C(=O)N[C@@H](CO)C(=O)N[C@@H](CCCCN)C(=O)N[C@@H](CO)C(=O)N[C@@H](CCCNC(=N)N)C(=O)N[C@@H](Cc1ccc(O)cc1)C(=O)N[C@@H](CCCNC(=N)N)C(=O)N[C@@H](CCCCN)C(=O)N[C@@H](CCC(N)=O)C(=O)N[C@@H](CCSC)C(=O)N[C@@H](C)C(=O)N[C@H](C(=O)N[C@@H](CCCCN)C(=O)N[C@@H](CCCCN)C(=O)N[C@@H](Cc1ccc(O)cc1)C(=O)N[C@@H](CC(C)C)C(=O)N[C@@H](C)C(=O)N[C@@H](C)C(=O)N[C@H](C(=O)N[C@@H](CC(C)C)C(N)=O)C(C)C)C(C)C)[C@@H](C)O [PAC10] | 4
